Residue numbers refer to the chain shown, from its start. In names and notes the source's numbering stands.
T1: TaspCyt (GFP-tagged Taspase1 with a C-terminal nuclear export signal) (human, UniProt Q9H6P5 1-420)
T1 construct: Threonine Aspartase 1 (Taspase1), human, 420 aa; open reading frame cloned from MV4;11 and THP-1 cells; Still catalytically active, so probably processed in cells into α- and β-subunits; also called GFP-TaspCyt; pTaspcyt; source: HeLa, transfected, in living cells; not shown: NES (strong nuclear export signal), C-terminal, kept
T1 sequence (looked up): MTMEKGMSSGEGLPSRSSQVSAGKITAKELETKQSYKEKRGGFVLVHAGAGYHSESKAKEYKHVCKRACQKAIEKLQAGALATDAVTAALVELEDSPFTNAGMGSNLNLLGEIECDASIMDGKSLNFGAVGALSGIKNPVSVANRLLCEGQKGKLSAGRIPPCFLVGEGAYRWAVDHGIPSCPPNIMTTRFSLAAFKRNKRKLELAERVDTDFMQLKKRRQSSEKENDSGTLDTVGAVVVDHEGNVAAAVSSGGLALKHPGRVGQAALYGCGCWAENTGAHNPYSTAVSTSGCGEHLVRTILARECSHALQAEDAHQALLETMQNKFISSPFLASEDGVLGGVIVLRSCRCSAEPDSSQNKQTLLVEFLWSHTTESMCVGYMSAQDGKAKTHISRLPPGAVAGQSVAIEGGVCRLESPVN

B1: Taspase1-mCherry (wild type) (enzyme, human, UniProt Q9H6P5 1-420, looked up)
chain: T1 sequence (looked up)
notes: Threonine Aspartase 1 (Taspase1), human, 420 aa; open reading frame cloned from MV4;11 and THP-1 cells; The wild-type proenzyme is autoproteolytically processed in cells into α- and β-subunits; also called Tasp-mCherry; Tasp-mCh; source: HeLa, transfected, in living cells
B2: Tasp^T234V-mCherry (enzyme, human, UniProt Q9H6P5 1-420, looked up)
chain: T1 sequence (looked up) with T234V
notes: Threonine Aspartase 1 (Taspase1), human, 420 aa, with Thr234 changed to Val; Not autoprocessed; stays a proenzyme; also called Taspase1^T234V-mCherry; catalytically dead Taspase1 mutant; source: HeLa, transfected, in living cells
B3: Tasp^D233A-mCherry (enzyme, human, UniProt Q9H6P5 1-420, looked up)
chain: T1 sequence (looked up) with D233A
notes: Threonine Aspartase 1 (Taspase1), human, 420 aa, with Asp233 changed to Ala; Impaired in autoproteolytic cis-cleavage; also called Taspase1^D233A-mCherry; highly attenuated Taspase1 variant; source: HeLa, transfected, in living cells

target: T1, TaspCyt (GFP-tagged Taspase1 with a …); assay: translocation-based protein interaction assay; living HeLa transfectants, 24 h after transfection; nuclear/nucleolar recruitment of a cytoplasmic fluorescent fusion by a nuclear/nucleolar fusion; fluorescence microscopy, and confocal microscopy with the Manders overlap coefficient R; conditions: partners not purified

Manders overlap coefficient R	Binder
0.387	B1
0.388	B2
0.394	B3
